Target: T1, Nicotinamide Nucleotide Transhydrogenase (NNT), endogenous, mouse kidney (mouse, UniProt Q61941 44-1086)
T1 construct: Inner mitochondrial membrane protein; absent in C57BL/6J mice (deletion of exons 7-11 of Nnt)
T1 sequence (looked up): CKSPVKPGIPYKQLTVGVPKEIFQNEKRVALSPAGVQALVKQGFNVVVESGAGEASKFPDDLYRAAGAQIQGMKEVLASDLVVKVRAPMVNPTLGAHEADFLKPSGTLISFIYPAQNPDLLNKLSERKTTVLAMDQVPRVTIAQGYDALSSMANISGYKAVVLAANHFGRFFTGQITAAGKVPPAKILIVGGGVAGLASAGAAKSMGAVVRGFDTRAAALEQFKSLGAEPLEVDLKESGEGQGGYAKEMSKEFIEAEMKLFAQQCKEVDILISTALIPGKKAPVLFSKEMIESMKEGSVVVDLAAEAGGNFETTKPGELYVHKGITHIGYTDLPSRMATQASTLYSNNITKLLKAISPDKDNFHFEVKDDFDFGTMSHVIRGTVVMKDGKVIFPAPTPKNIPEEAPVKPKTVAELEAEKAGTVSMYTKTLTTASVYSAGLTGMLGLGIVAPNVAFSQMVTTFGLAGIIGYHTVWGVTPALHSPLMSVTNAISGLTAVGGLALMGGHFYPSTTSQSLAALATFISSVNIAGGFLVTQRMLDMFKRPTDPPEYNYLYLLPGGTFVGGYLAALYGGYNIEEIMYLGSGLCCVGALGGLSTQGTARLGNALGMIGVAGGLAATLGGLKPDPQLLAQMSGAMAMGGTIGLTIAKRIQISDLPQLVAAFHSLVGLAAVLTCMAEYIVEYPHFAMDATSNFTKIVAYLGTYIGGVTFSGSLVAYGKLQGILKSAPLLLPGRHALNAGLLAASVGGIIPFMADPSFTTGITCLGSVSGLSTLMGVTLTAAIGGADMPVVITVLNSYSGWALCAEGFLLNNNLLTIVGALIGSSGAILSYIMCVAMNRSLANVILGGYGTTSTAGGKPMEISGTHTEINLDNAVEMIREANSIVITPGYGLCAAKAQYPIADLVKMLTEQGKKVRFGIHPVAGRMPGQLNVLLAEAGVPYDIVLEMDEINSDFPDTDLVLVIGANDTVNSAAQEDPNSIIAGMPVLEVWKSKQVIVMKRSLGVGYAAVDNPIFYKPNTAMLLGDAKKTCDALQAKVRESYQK
Test: anti-HA immunoprecipitation from mouse kidney lysates, immunoblot
Experimental: Homogenates were then sonicated for 30 seconds (2×15 second bursts at 40% power) and incubated for 45 minutes on ice to complete protein solubilization. Lysates were centrifuged at 8000 rpm for 15 minutes. Protein concentrations were measured with the Protein Assay Dye Reagent Concentrate (catalog #5000006, Bio-Rad). Anti-HA magnetic beads (catalog #88837, ThermoFischer Scientific) were equilibrated in lysis buffer (50 μL beads per reaction in 500 μl of lysis buffer) for 10 minutes at room temperature on a rocking shaker, and then incubated with a total of 4 mg of tissue lysate per sample, overnight, at 4° C. Following four 5-minute washes with 1 ml lysis buffer, the dynabeads were magnetically recovered and precipitated proteins were eluted in 60 μl of 2× Laemmli sample buffer (catalog #1610747, Bio-Rad) with 300 mM Dithiothreitol (DTT). One-third of the eluted proteins (20 μl) was loaded per sample per gel for immunoblotting.
The alleles required to produce the Pkd1-KO+/−CTT mice were moved to this NNT-deficient background (J-Pkd1-KO and J-Pkd1-KO+CTT). […] No NNT was detected in glomeruli or Bowman's capsule. This pattern reproduced the one reported in the Human Protein Atlas (Uhlen, et al., Science Vol. 347, 1260419 (2015)). […] NNT was only detected in immunoprecipitates from “N” cystic mice that express CTT and not in those derived from N-Pkd1-KO mice that express NNT but not CTT.

binding result: binds
B1: 2HA-PC1-CTT (final 200 amino acids of human polycystin-1, aa 4102-4302, with an N-terminal 2xHA epitope tag) (other, not shown: small tags and cut ends)
chain: VILRWRYHALRGELYRPAWEPQDYEMVELFLRRLRLWMGLSKVKEFRHKVRFEGMEPLPSRSSRGSKVSPDVPPPSAGSDASHPSTSSSQLDGLSVSLGRLGTRCEPEPSRLQAVFEALLTQFDRLNQATEDVYQLEQQLHSLQGRRSSRAPAGSSRGPSPGLRPALPSRLARASRGVDLATGPSRTPLRAKNKVHPSST
notes: Expressed from a BAC transgene in renal epithelial cells of Pkd1-KO+CTT mice; detected as a 37-kDa HA-tagged band; also called 2HA-PKD1-CTT; polycystin-1 C-terminal tail

Source: patent publication US20240400627A1 (YALE UNIVERSITY, published 2024)
